B1: Voltage-dependent calcium channel gamma-2 subunit (Homo sapiens), Q9Y698 (parent)
chain: MGLFDRGVQMLLTTVGAFAAFSLMTIAVGTDYWLYSRGVCKTKSVSENETSKKNEEVMTHSGLWRTCCLEGNFKGLCKQIDHFPEDADYEADTAEYFLRAVRASSIFPILSVILLFMGGLCIAASEFYKTRHNIILSAGIFFVSAGLSNIIGIIVYISANAGDPSKSDSKKNSYSYGWSFYFGALSFIIAEMVGVLAVHMFIDRHKQLRATARATDYLQASAITRIPSYRYRYQRRSRSSSRSTEPSHSRDASPVGIKGFNTLPSTEISMYTLSRDPLKAATTPTATYNSDRDNSFLQVHNCIQKENKDSLHSNTANRRTTPV

Variants of: B1
Conditions: with gria1_rat Gria1, P19490
gria1_rat Gria1, P19490, sequence (P19490 whole entry): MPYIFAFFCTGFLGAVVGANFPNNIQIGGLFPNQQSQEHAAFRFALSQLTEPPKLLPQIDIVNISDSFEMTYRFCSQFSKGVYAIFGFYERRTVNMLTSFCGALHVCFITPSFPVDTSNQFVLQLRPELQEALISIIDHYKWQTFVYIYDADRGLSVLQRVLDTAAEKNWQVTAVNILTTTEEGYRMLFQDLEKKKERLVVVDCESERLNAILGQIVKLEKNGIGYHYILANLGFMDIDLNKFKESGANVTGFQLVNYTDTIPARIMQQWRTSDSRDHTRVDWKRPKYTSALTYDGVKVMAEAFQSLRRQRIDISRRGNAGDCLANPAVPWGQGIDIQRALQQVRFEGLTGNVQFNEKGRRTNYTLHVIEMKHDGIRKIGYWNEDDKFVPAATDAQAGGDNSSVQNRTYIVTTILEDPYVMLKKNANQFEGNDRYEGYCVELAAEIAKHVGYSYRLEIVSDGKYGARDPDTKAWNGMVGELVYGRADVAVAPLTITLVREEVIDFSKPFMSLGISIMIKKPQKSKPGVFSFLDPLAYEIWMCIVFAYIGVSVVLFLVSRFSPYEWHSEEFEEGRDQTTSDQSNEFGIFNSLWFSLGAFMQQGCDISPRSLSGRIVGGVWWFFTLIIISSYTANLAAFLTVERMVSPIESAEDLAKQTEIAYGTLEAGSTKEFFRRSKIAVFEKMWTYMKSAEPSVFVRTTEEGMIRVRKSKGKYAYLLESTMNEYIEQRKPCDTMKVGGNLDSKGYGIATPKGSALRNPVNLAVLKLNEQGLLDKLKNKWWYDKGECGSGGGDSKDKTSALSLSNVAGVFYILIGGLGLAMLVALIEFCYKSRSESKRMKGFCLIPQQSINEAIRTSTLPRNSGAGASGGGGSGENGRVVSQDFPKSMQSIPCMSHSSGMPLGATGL

effect of a mutation on the interaction	Variant
decreasing interaction	C302S
